Drawing on publication PMC3405907, this text covers stoichiometry N for 2 substances.

The target in assay [1] is capsid shell protein (CSP) of cytoplasmic polyhedrosis virus (cytoplasmic polyhedrosis virus (CPV)). The assay can be described thus: cryo-EM structure.
Assay [2] concerns the target turret protein (TP) of cytoplasmic polyhedrosis virus (cytoplasmic polyhedrosis virus (CPV)). The assay can be described thus: cryo-EM structure.

In general, stoichiometry N refers to a count of units in the complex or per binding partner. For the substance “capsid shell protein (CSP) of cytoplasmic polyhedrosis virus (natural protein)”, in assay [1], the stoichiometry N is 120.
Regarding “turret protein (TP) of cytoplasmic polyhedrosis virus (enzyme)”, in assay [2], the stoichiometry N is 5.
